Six molecules from PMC6424611 (Journal of molecular biology, 2019) can be followed below.

As a reminder, the Kd is the free concentration of one partner at which half of the binding sites on the other are occupied at equilibrium, for simple one-to-one binding. A high value points to weaker binding.

Where no end group is shown, it is not given here. [ ]: non-standard residue; d: D form. The star is where a group is joined. Biotin = O=C1N[C@H]2[C@H](CS[C@H]2CCCCC(=O)*)N1; TTDS = NCCCOCCOCCOCCCNC(=O)CCC(=O)*; pS = N[C@@H](COP(=O)(O)O)C(=O)O

First the molecules themselves.
B1: RSK1 683-735 peptide, phosphorylated (peptide, UniProt Q15418 683-735, looked up)
peptide: QSQLSHQDLQLVKGAMAATYSALNSSKPTPQLKPIESSILAQRRVRKLPSTTL
modifications: also: monophosphorylated, site not given here
B2: MBP-fused PDZ domain 1 of PDZRN4 (domain or fragment, human, UniProt Q6ZMN7 224-314, looked up)
chain: TIVLERENDTLGFNIIGGRPNQNNQEGTSTEGIYVSKILENGPADRADGLEIHDKIMEVNGKDLSKATHEEAVEAFRNAKEPIVVQVLRRT
B3: MBP-fused PDZ domain 1 of PARD3B (domain or fragment, human, UniProt Q8TEW8 201-289, looked up)
chain: TRTVEISGEGGPLGIHVVPFFSSLSGRILGLFIRGIEDNSRSKREGLFHENECIVKINNVDLVDKTFAQAQDVFRQAMKSPSVLLHVLP
B4: biotinylated RSK1 725-735 peptide, phosphorylated at Ser732 (position -3) (peptide, UniProt Q15418 725-735, looked up)
peptide: {Biotin-TTDS}-RRVRKLP[pS]TTL
B5: PDZ domain 2 of MAGI3 (domain or fragment, human, UniProt Q5TCQ9 410-492, looked up)
chain: RASLKKSTMGFGFTIIGGDRPDEFLQVKNVLKDGPAAQDGKIAPGDVIVDINGNCVLGHTHADVVQMFQLVPVNQYVNLTLCR
B6: biotinylated RSK1 725-735 peptide, unphosphorylated (peptide, UniProt Q15418 725-735, looked up)
peptide: {Biotin-TTDS}-RRVRKLPSTTL

Test [1] addresses T1, MBP-fused PDZ domain of SNTG2 (human, UniProt Q9NY99 73-156).
T1 sequence (looked up): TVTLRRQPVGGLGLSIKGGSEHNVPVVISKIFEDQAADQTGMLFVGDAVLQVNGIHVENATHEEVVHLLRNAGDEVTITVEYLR
Briefly: fluorescence polarisation. On the technique in general: Polarisation of emitted light reports the rotation of a fluorescent probe.

Test [2] concerns the target MBP-fused PDZ domain of HTRA1 (human, UniProt Q92743 365-467). Description: fluorescence polarisation.
Test [3] addresses T2, MBP-fused PDZ domain of MAST1 (human, UniProt Q9Y2H9 967-1055).
T2 sequence (looked up): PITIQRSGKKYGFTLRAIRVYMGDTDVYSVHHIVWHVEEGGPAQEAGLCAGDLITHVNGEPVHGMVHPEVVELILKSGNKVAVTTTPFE
Briefly: fluorescence polarisation.

In test [4] the target is B3. Description: fluorescence polarisation.
The target of test [5] is T3, MBP-fused PDZ domain of SNTB1 (human, UniProt Q13884 112-195).
T3 sequence (looked up): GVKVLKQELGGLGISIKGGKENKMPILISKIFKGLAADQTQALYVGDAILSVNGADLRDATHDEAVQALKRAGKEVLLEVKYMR
Briefly: fluorescence polarisation.

The target of test [6] is MBP-fused PDZ domain of SNX27 (human, UniProt Q96L92 43-136). Briefly: fluorescence polarisation.
The target of test [7] is T4, MBP-fused PDZ domain 3 of PDZD7 (human, UniProt Q9H5P4 862-934).
T4 sequence (looked up): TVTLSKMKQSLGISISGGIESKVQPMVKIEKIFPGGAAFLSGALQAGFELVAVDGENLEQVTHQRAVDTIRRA
Description: fluorescence polarisation.

Test [8] addresses T5, MBP-fused PDZ domain of MAST2 (human, UniProt Q6P0Q8 1104-1192).
T5 sequence (looked up): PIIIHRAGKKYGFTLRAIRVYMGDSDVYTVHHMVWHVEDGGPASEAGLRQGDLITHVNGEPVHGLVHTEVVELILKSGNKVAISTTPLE
Briefly: fluorescence polarisation.

Test [9] has as its target MBP-fused PDZ domain 2 of GRID2IP (human, UniProt A4D2P6 279-356). Description: fluorescence polarisation.
Test [10] deals with B6. Description: holdup assay.
Test [11] addresses B4. Description: holdup assay.
Test [12] concerns the target B3. Description: holdup assay.
For test [13], the target named is B2. Description: holdup assay.
The target of the test “PDZ domain 2 of MAGI3” is B5. Description: holdup assay.
The target of test [14] is B3. Briefly: SPR. Background: SPR reads the build-up and loss of mass on a sensor chip optically.
Test [15] concerns the target B2. Briefly: SPR.

Chain of MBP-fused PDZ domain of HTRA1 (Q92743 365-467): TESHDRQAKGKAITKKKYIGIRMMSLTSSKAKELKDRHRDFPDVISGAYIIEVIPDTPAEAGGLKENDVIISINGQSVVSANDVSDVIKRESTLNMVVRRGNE
Chain of MBP-fused PDZ domain 2 of GRID2IP (A4D2P6 279-356): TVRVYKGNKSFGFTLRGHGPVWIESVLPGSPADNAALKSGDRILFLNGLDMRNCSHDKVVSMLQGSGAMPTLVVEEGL

On to B1, for which the dissociation constant (Kd) came out at 4.8 ± 1.7 µM in test [1]; 33 ± 2 µM in test [2]; 92 ± 12 µM in test [3]; 31 ± 3.5 µM in test [4]; 4.5 ± 0.3 µM in test [5]; 32 ± 5 µM in test [6]. Moreover, the figures for the Kd in test [7], in test [8] and in test [9] were 46 ± 7 µM, 48 ± 84 µM and 85 ± 11 µM, respectively.

For the molecule B2, the BI in [10] was 0.51 ± 0.02; in test [11], 0.54 ± 0.03.

Consider B3, for which the BI was determined as 0.52 ± 0.05 in test [10] and 0.31 ± 0.02 in test [11].

Take B4: the Kd in test [12] came out at 35.1 µM; in test [13] it was 12.6 µM; in the test with PDZ domain 2 of MAGI3, 40.8 µM; in test [14], 6.1 ± 0.4 µM; in test [15], 7.1 ± 0.9 µM.

B5: the BI in [10] was determined as 0.28 ± 0.03; in [11], 0.28 ± 0.06.

Take B6: the Kd amounted to 13.8 µM in test [12]; 14.4 µM in [13]; 40.8 µM in the test with PDZ domain 2 of MAGI3; 4 ± 0.3 µM in test [14]; 0.97 ± 0.18 µM in [15].
